Test results: patent US7947807B2, “Method for obtaining G protein-coupled receptor (GPCR) diffraction-quality crystals employing a monoclonal antibody that binds to the third intracellular loop (IL3)” (The Board of Trustees of the Leland Stanford Junior …, priority 2007, dated 2011)
Entries after “also recorded” stand apart in the source; their conditions may differ. Like-named read-outs stand apart in the source and are kept apart here. Each block holds one molecule with its values, some of them ahead of it.

What was measured:
β2AR [1] = molecular target: T1, β2AR (Homo sapiens, UniProt P07550); assay: Saturation and competition binding assays on purified β2AR reconstituted in phospholipid vesicles, with and without prebound Fab 5; details: saturation binding, read-out: [3H]dihydroalprenolol Kd ± S.E.
T1 construct: hexahistidine (C); made in house; host or cells: Sf9 insect cells
Method: The effect of Fab binding on ligand binding properties and on agonist-induced three dimensional changes was determined.

β2AR [2] = molecular target: T2, β2AR (Homo sapiens, UniProt P07550, A271C/I135W); assay: Bimane fluorescence assay of agonist-induced conformational change (β2AR labeled with monobromobimane at H271C); assay type: biochemical; details: 1 μM Fab5, 100 μM isoproterenol, 15 minutes
T2 construct: made in house
Text: (§1) FIGS. 3A and 3B. […] The fragmented β2AR was visualized using an Alexa-680 labeled M1 antibody against the N-terminal Flag epitope. […] The loop is marked with MW indicators corresponding to N-terminal fragments containing the Flag epitope. Residues sensitive to trypsin digest are shown in red. 3B, The change in the bimane fluorescence of β2AR labeled with monobromobimane at H271C at the cytoplasmic end of TM6. Bimane fluorescence is quenched by W135 at the cytoplasmic end of TM3 upon agonist binding^9. […] Fluorescence intensity was corrected for background fluorescence from buffer and ligands in all experiments. The data are the mean±S.E. of two independent experiments performed in triplicate.
Purified receptor was reacted with 1:1 equivalent of monobromobimane (mBBr, Invitrogen) in buffer A (100 mM NaCl, 20 mM HEPES, pH 7.5, 0.1% dodecyl maltoside) and incubated overnight on ice in the dark. The fluorophore-labeled receptor was purified right before use by gel filtration on a desalting column equilibrated with buffer B. Fluorescence spectroscopy experiments were performed on a Spex FluoroMax-3 spectrofluorometer (Jobin Yvon Inc, NJ) with photon counting mode by using an excitation and emission bandpass of 4 nm. All experiments were performed at 25° C. For emission scans, excitation was set at 370 nm and emission was measured from 430-530 nm with an integration time of 1 s/nm. […]

β2AR-TMR = molecular target: T3, β2AR-TMR (Homo sapiens, UniProt P07550); assay: Fluorescence of β2AR labeled at C265 with tetramethylrhodamine (β2AR-TMR), antibody dose-response; assay type: biochemical
T3 construct: made in house
Method: FIGS. 2A and 2B. Binding characteristics of β2AR-specific antibodies. 2A, Dot-blots showing binding of nine β2AR specific antibodies to denatured receptor. Equal amounts of β2AR denatured with SDS and β-mercaptoethanol were spotted in triplicate on nitrocellulose strips. The strips were blocked with 5% non-fat dry milk in PBS-Tween (0.05% Tween-20) and then probed with […] of the indicated antibodies diluted in blocking buffer. Binding of the primary antibody to the denatured β2AR was detected with an Alexa-688 labeled anti-mouse secondary antibody. The top panel is a graphical representation of the average dot intensity from three independent experiments. The lower panel is a representative experiment. […] 2B, Dose-response curves showing the effect on increasing amounts of antibodies 4-9 on the fluorescence of β2AR labeled at C265 with tetramethylrhodamine (β2AR-TMR). β2AR-TMR was diluted to 4 nM in 500 μL of buffer consisting of 0.1% dodecylmaltoside, 100 mM sodium chloride, and 20 mM HEPES buffer (pH 7.5). […]
To select for antibodies that may interact with IC3, we examined the effect of antibody binding on the fluorescence of β2AR labeled at C265 (at the cytoplasmic end of TM6) with tetramethylrhodamine. […] As such, antibodies binding to IC3 may stabilize a specific conformation of TM5 relative to TM6 that would be detected by a change in tetramethylrhodamine fluorescence.

[3] = molecular target: T4, flag tagged β2AR stably expressed in HEK-293 cells (Homo sapiens, UniProt P07550); assay: Immunofluorescence staining of HEK-293 cells stably expressing flag tagged β2AR, nonpermeabilized or permeabilized; assay type: cell-based; details: compared with M1 antibody
T4 construct: expressed in transfected cells
Method: HEK-293 cells stably expressing a flag tagged version of the β2AR were cultured on coverslips and processed for immunocytochemistry. After fixation, with 4% paraformaldehyde, the cells were washed and blocked with 2.5% goat serum in PBS alone (nonpermeabilized) or with 0.5% NP-40 in PBS (permeabilized). The cells were incubated with the β2AR specific antibody indicated on the left side of the figure. After several washes, the β2AR monoclonal antibodies were detected with a Texas Red conjugated anti-mouse secondary antibody. […] The images shown are representative of at least 3 experiments. All images were acquired using an Axioplan 2 microscope (Carl Zeiss MicroImaging), fitted with a camera (RTE/CCD-1300-Y/HS; Roper Scientific) controlled using IPLab software (BD Bioscience).
The antibodies were characterized as binding the intracellular or extracellular surface of the receptor in immunofluorescence experiments with HEK-293 cells stably expressing an N-terminally FLAG-tagged version of the β2AR. Antibodies that recognize an intracellular epitope only stain permeabilized cells.

denatured β2AR = molecular target: T5, denatured β2AR (Homo sapiens, UniProt P07550); assay: Dot-blot binding of antibodies to SDS-denatured β2AR; details: β2AR denatured with SDS, spotted on nitrocellulose
T5 construct: hexahistidine (C); made in house; host or cells: Sf9 insect cells
Method: FIGS. 2A and 2B. Binding characteristics of β2AR-specific antibodies. 2A, Dot-blots showing binding of nine β2AR specific antibodies to denatured receptor. Equal amounts of β2AR denatured with SDS and β-mercaptoethanol were spotted in triplicate on nitrocellulose strips. The strips were blocked with 5% non-fat dry milk in PBS-Tween (0.05% Tween-20) and then probed with […] of the indicated antibodies diluted in blocking buffer. Binding of the primary antibody to the denatured β2AR was detected with an Alexa-688 labeled anti-mouse secondary antibody. The top panel is a graphical representation of the average dot intensity from three independent experiments. The lower panel is a representative experiment. The binding of all 9 antibodies to denatured β2AR is reduced compared to M1 binding to the linear Flag epitope. 2B, Dose-response curves showing the effect on increasing amounts of antibodies 4-9 on the fluorescence of β2AR labeled at C265 with tetramethylrhodamine (β2AR-TMR). β2AR-TMR was diluted to 4 nM in 500 μL of buffer consisting of 0.1% dodecylmaltoside, 100 mM sodium chloride, and 20 mM HEPES buffer (pH 7.5). Data represent an n of 3.
Antibodies were screened for binding to a three dimensional epitope on the three-dimensional surface on the IC3 of the native β2AR, rather than a flexible linear epitope. […]

β2AR [4] = molecular target: T1, β2AR; assay: Coupling of purified β2AR to purified G protein; assay type: biochemical; details: data not shown
β2AR [5] = molecular target: T1, β2AR; assay: Limited tryptic digestion of purified β2AR with and without Fab 5, Western blot; assay type: biochemical; details: preincubated with Fab 5; M1 anti-FLAG Western blot
Text: as §1
Cleavage of purified β2AR with trypsin yielded two bands with molecular weights of approximately 27 and 29 kDa on a Western blot probed with the M1 anti-FLAG antibody (FIG. 3A). The sizes of these fragments indicate trypsin digestion at two of ten potential sites in IC3 (FIG. 3A).

Molecule: CCCc1ccccc1OCC(O)CNC(C)C (stereo not shown) [[^3H]dihydroalprenolol]
Kd (β2AR [1]; β2AR without prebound Fab 5): 1.02 ± 0.09 nM | Kd (β2AR [1]; β2AR-Fab5 (prebound Fab 5)): 1.08 ± 0.05 nM

effect on agonist-induced bimane fluorescence change (β2AR [2]): not affected | immunostaining on binding to native receptor in fixed cells [3]: comparable to M1
B1: antibody 5: mouse monoclonal antibody binding a three dimensional epitope on the third intracellular loop of β2AR (protein)
light: DIKMTQSPSSMYASLGERVTITCKASQDINSYLSWFQQKPGKSPKTLIYRANRLVDGVPSRFIGTGSGQDYSLTISSLDYEDMGIYYCLQYDEFPYTFGGGTKLEIKRADAAPTVSIFPPSSEQLTSGGASVVCFLNNFYPKDINVKWKIDGSERQNGVLNSWTDQDSKDSTYSMSSTLTLTKDEYERHNSYTCEATHKTSTSPIVKSFNRNEC
heavy: EVQLQQSGAELARPGASVKLSCKASGYIFTDYYINWVRQRTGQGFEWIGEIYPGSGNIDYNERFKDKATLTADKSSSTAYMQLSSLTSEDSAVYFCVRGFGYWGQGTTLTVSSAKTTPPSVYPLAPGSAAQTNSMVTLGCLVKGYFPEPVTVTWNSGSLSSGVHTFPAVLQSDLYTLSSSVTVPSSTWPSETVTCNVAHPASSTKVDKKIVPRDCGC
affinity for the β2AR (in words) (β2AR-TMR; from β2AR-TMR dose-response curves, FIG. 2B): highest affinity; also recorded: relatively high affinity | fluorescence response of β2AR-TMR (β2AR-TMR; β2AR labeled at C265 with tetramethylrhodamine): largest fluorescence response; also recorded: significantly greater than the response to antibody 9 | binding to denatured β2AR (denatured β2AR): weakest binding to denatured protein; also recorded: bound weakly

coupling of purified β2AR to purified G protein (β2AR [4]): prevented coupling
B2: Fab 5: Fab fragment of antibody 5 generated by papain cleavage; light chain SEQ ID NO: 1, heavy chain SEQ ID NO: 2 (antibody)
heavy: B1 heavy
light: B1 light
modifications: mus musculis; UNSURE (0)...(0) Fab 5 Heavy chain; UNSURE (0)...(0) Fab5 light chain
effect on agonist-induced bimane fluorescence change (β2AR [2]): did not restrict the movement of transmembrane segments | protection of IC3 from trypsin cleavage (β2AR [5]): the 27 kDa band disappears; also recorded: protects the N-terminal end of the loop
